# Assay: Partition coefficient K in two-phase aqueous system PEG (1000) 12.5%-K2HPO4 12.5%
# Type: physicochemical
# Conditions: PEG (MW 1000) 12.5%-K2HPO4 12.5% two-phase aqueous solvent system
# Excerpt: A determination of the partition coefficient, K, is made by dissolving a small sample into a solvent system, shaking the mixture, and measuring the concentration of the sample in both phases after separation of the phases. That provides the ratio of concentration in the upper to lower phase (Cu/Cl). The phase chosen as the mobile phase is that giving a partition coefficient of 1 to 2. The efficiency of a separation will be determined by use of the conventional gas chromatographic equation: N=(4R/W)^2. The theoretical plates or N is calculated from the shape of the peaks. R is the retention time or volume of the peak maximum and W is the peak width expressed in the same units as R. For preparative separations, the values of N may be up to 1000, but the more important relationship is resolution. Resolution between adjacent peaks is given by: RS=2(VR,2−VR,1)/(W1+W2). Using that equation and substituting each solute retention volume by the following: VR=Vm+KVS. The Vm term cancels giving: RS=2(K2−K1)Vs/(W1+W2).
# The apparatus of interest can be used to separate proteins or other large molecules. In this example, the spiral tube support was made as described above and used to purify mouse uteroglobin. Mouse uteroglobin has a MW of […] and normally exists as a dimer; but, in solution, a monomeric form of the protein can also accumulate. A separation was made in the spiral tube support to separate uteroglobin monomers from uteroglobin dimers. This was done by measuring the K value using HPLC and then separating the protein using countercurrent chromatography with the spiral tube support apparatus. […] The heights of the peaks representing the monomer at 31.5 min. and dimer at 32.8 min. HPLC retention time, respectively, were measured and the ratios give different values for the concentration in the upper phase over that of the lower phase. The two protein peaks calculated to K values of 4.0 and 6.9 in PEG (1000) 12.5%-K2HPO4 12.5%. The different K values mean that the two species could be separated with one or the other phase mobile. Since the numeric value is over two, the analyte would remain in the coil a long time, ultimately being eluted in approximately four to seven column volumes. Consequently, a run was performed for two column volumes and then the contents of the column were extruded and analyzed.
# In this example, 31 mg lysozyme (14.4 kDa) and 24 mg myoglobin (17.7 kDa) were mixed and separated using the countercurrent chromatography apparatus and methods of use as claimed. A non-denaturing two-phase aqueous solvent system consisting of 12.5% PEG (MW 1000):12.5% K2HPO4 provides for a polyethylene-rich upper phase and phosphate buffer-rich lower phase. The lower phase was used as the mobile phase at a flow rate of 1 ml/min. […]
row,Substance,K value (concentration in upper phase over lower phase)
1,lysozyme,1.35
2,myoglobin,0.38
3,uteroglobin dimer: dimeric form of mouse uteroglobin protein,6.9
4,uteroglobin monomer: monomeric form of mouse uteroglobin protein,4.0
